Literature values in publication PMC2742733.

Molecular target: TEM-8 (Homo sapiens) (UniProt Q9H6X2)

## Protective antigen (PA) (from UniProt P13423)
  Kd: 130 nM
